Assay results taken from US20240343823A1 (Ablynx, published 2024).

Columns and labels:
[1] = biological target: human GPC3 on tumor cell lines (HepG2, Huh-7, NCI-H661, MKN-45, NCI-H23, BxPC-3, NCI-H292) (human, UniProt P51654 25-554); experiment: cell-based or functional assay
[2] = biological target: T1, Recombinant human GPC4/hFc (R&D Systems, cat no 9195-GP) (human, UniProt O75487 19-529, limits assumed); experiment: SPR ProteOn XPR36, GPC4/hFc captured on anti-human IgG1
T1 construct: Bought; not shown: captured with anti-human IgG1
T1 sequence (looked up): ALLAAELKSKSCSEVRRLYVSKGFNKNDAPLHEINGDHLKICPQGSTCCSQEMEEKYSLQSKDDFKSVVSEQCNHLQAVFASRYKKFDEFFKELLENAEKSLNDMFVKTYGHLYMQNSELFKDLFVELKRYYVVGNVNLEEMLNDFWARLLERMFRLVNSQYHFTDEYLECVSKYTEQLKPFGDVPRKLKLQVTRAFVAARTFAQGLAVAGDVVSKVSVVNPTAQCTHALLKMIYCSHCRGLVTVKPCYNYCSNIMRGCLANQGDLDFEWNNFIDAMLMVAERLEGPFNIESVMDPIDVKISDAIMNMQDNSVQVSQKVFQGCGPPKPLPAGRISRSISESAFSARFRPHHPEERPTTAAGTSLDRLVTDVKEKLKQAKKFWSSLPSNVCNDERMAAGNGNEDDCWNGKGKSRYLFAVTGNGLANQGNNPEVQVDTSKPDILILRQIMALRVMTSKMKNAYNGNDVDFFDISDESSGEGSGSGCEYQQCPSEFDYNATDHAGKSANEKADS
Text: Data was double referenced by subtracting a reference ligand lane and a blank buffer injection.

[3] = biological target: T2, human GPC2 (R&D systems, cat no 2304-GP) (human, UniProt Q8N158 24-554, limits assumed); experiment: ELISA, GPC2 coated at 2 ug/mL
T2 construct: Bought
T2 sequence (looked up): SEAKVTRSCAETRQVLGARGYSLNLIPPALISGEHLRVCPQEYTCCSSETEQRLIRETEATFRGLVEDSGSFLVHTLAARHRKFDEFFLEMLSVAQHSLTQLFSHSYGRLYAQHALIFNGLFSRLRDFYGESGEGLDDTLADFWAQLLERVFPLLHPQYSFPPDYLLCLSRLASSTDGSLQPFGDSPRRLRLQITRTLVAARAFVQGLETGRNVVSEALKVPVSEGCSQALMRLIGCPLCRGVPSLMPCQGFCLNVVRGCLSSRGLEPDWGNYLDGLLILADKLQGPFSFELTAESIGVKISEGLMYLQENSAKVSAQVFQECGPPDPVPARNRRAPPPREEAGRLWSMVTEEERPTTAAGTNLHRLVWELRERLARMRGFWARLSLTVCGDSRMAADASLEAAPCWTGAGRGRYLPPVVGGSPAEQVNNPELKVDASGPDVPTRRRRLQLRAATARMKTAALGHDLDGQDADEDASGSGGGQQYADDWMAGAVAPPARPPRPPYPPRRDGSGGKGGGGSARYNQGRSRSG
Description: Human GPC1 (R&D systems, cat no 4519-GP), human GPC2 (R&D systems, cat no 2304-GP), human GPC3 (R&D systems, cat no 2119-GP), human Glypican-5 (R&D systems, cat no 2607-G5) and human Glypican-6 (R&D systems, cat no 2845-GP) were directly coated overnight at 4° C. (2 μg/mL, 1×PBS buffer) on a 384-well HB SpectraPlate (PerkinElmer). The following day the plate was washed 6 times (AquaMax microplate washer, Molecular devices) and blocked with 1×PBS+1% Casein for 2 hours at room temperature. […] After 6 final wash steps the es(HS)TMB substrate (SDT) was added and the reaction stopped by addition of 1 M HCl after 10 minutes. The absorbance of the plate was measured at wavelengths 450 and 620 nm on the Clariostar instrument (BMG LABTECH) and the OD₄₅₀-OD₆₂₀ calculated and plotted for data analysis.

[4] = biological target: T3, cyno TCRab, in house produced (extracellular domains fused to a zipper peptide) (cynomolgus); experiment: SPR ProteOn XPR36, TCRab immobilized by amine coupling, 1:1 model
T3 construct: Numbering of the four differences is not explained; not shown: variable domains, if any; any residues beyond C131 of the beta chain
T3 alpha: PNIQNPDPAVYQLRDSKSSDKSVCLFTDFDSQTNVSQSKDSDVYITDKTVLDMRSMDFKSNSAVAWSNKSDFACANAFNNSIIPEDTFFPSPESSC
T3 beta: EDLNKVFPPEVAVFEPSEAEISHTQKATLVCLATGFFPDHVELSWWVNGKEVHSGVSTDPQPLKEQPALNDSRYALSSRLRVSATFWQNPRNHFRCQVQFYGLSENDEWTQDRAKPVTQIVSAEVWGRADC
Description: Recombinant TCR proteins were immobilized on a GLC Sensor Chip (Biorad) via amine coupling, using EDC and NHS chemistry (running buffer: HBS-EP+, pH 7.4). Purified ISVDs were injected for 2 minutes (flow rate 45 μL/min) at different concentrations (between 0.2 nM and 200 nM) and dissociation was followed for 900 s. Regeneration was performed by injecting 3 M MgCl₂ for 3 minutes (flow rate 90 μL/min). Data was double referenced by subtracting a reference ligand lane and a blank buffer injection. Processed sensorgrams were analyzed based on the 1:1 interaction model (Langmuir binding model) using ProteOn Manager 3.1.0 (Version 3.1.0.6) software.

B1: A022600424 (other)
chain: DVQLVESGGGVVQPGGSLRLSCVASGYVHKINFYGWYRQAPGKEREKVAHISIGDQTDYADSAKGRFTISRDESKNTVYLQMNSLRPEDTAAYYCRALSRIWPYDYWGQGTLVTVSSGGGGSEVQLVESGGGVVQPGGSLRLSCAASGFTFSSFAMTWVRRPPGKGLEWVATITNKGVTSYADSVKGRFTISRDNAKNTLYLQMNSLRPEDTALYICANARRTGPRAPTDIGSYRGQGTLVTVSSGGGGSGGGSEVQLVESGGGVVQPGGSLRLSCAASGSIFRSVFSSSTMEWYRQAPGKKRELVARIAPGEGTYYGALYADSVKGRFTISRDNAKNTVYLQMNSLRPEDTALYYCASGVAWGQGTLVTVSSGGGGSGGGSEVQLVESGGGVVQPGGSLRLSCAASGFTFRSFGMSWVRQAPGKGPEWVSSISGSGSDTLYADSVKGRFTISRDNSKNTLYLQMNSLRPEDTALYYCTIGGSLSRSSQGTLVTVSSA
notes: Trispecific tetravalent ISVD (VHH) T-cell engager: anti-TCR, two anti-GPC3 (biparatopic), anti-albumin; also called TCE01-5GS-A022600351-9GS-A022600314-9GS-ALB23002-A
In the case of B1, the “IC50 (M), xCELLigence TDC assay on Huh-7, Primary cy T cells” value [1] is reported as 2.29e-10 M, the “IC50 (M), xCELLigence TDC assay on Huh-7, Primary hu T cells” value [1] is reported as 7.59e-11 M and the binding result [2] is reported as “no binding (tested: between 4 nM and 1000 nM)”. The binding result [3] was “no binding” and the Kd [4] was 5400 pM.
